Assay results as given in the Human Domainome abundance scans (Beltran et al. 2025).

B1: Tesmin, residues 368 to 403; numbered along this chain, Q9Y4I5 (parent)
chain: KGCNCRRSGCLKNYCECYEAQIMCSSICKCIGCKNY

Variants of: B1
Assay: abundance fitness (aPCA) (normalised: wild type 0, dead -1); higher = more abundant; growth selection in yeast, the domain comes from the species named
Settings: Homo sapiens

Abundance fitness, by site and new letter:
Y18: C -0.106; V -0.27; A -0.03; R -0.153; Q 0.107; M 0.098; F -0.089; D -0.088; N 0.083
C3: D -0.262; I -0.51; A -0.33; M -0.194; Q -0.462; T -0.322; F -0.567; P -0.577; G -0.236
C5: N -0.478; A -0.414; W -0.523; M -0.286; D -0.794
G9: N -0.248; T -0.22; L -0.629; P -0.213; M -0.269; D 0.111; A -0.339; W -1.51; Q -0.342; E 0.006
S25: K -0.196; P -0.521; A -0.051; V -0.509; E -0.315; C -0.393; G 0.093; F -0.711; W -0.45
K29: E 0.238; H 0.419; P -0.091; C -0.048; W -0.186; Q 0.18; T 0.024
C15: A -0.394; H -0.425; D -0.04; G -0.305; V -0.65; Y -0.658; P -0.259; L -0.713; K -0.295; W -0.993; Q -0.282; E -0.076; T -0.382
E19: P -0.284; L -0.281; G -0.043; R -0.188; N -0.351
C28: M -0.411; L -0.738; G -0.219; S -0.169; W -0.7; K -0.377; T -0.14; P -0.195; A -0.248; D -0.3
C17: K -0.337; L -0.288; Q -0.205; M -0.575; A -0.36; T -0.689; Y -0.72; E -0.465
G2: V -0.209; K -0.565; A -0.133; R -0.447; M -0.189; T -0.439; L -0.465; Q -0.17; S -0.194; C -0.448; P 0.07
R6: T 0.239; C 0.036; V 0.12; D 0.156; S 0.303; L 0.204; W 0.012; N -0.361; A 0.33
N35: W -0.233; L -0.861; T -0.167; G 0.211; P -0.055; C -0.384; K -0.44; V -0.362
C24: D -0.107; W -0.647; M -0.378; G -0.008; Q -0.072; S -0.201; L -0.402
I31: N 0.083; Y -0.322; A 0.309; V 0.125; L -0.021; S 0.147; F -0.171; C -0.02; W -0.099
K1: D -0.995; L -0.211; C -0.775; G -0.573; V -0.825; S -0.401; E -0.136
M23: L -0.462; H -0.198; T -0.419; G 0.127; Q -0.016; S -0.081; E 0.106
E16: P -0.327; A -0.256; T -0.39; R -0.341; S -0.57; Q -0.034; V -0.329; G -0.086; K -0.502
Y36: G 0.193; T 0.15; A 0.209; N 0.02; K -0.317; L -0.05; W 0.02; D 0.145
R7: C -0.401; K 0.039; M 0.214; Q 0.282; L -0.021; E 0.398; P -0.103; W -0.255
I22: K -0.093; N 0.551; W -0.365; F -0.088; M -0.423; A 0.004; E 0.004; L -0.073; S -0.066; G 0.268; Q 0.329; P -0.043; R 0.021
K34: I -0.503; L 0.121; W 0.003; A 0.185; Q -0.107; T 0.057; D 0.295; S 0.073
S8: E -0.08; K -0.107; D -0.066; A -0.144; R -0.169; G 0.034; C -0.581; Y -0.514; L -0.106; V -0.187
K12: C -0.622; G -0.079; T -0.201; V -0.014; L -0.316; I -0.405; M -0.323; Q -0.076; H -0.217; S -0.181; F -0.01; E 0.031
I27: S 0.009; A 0.162; D 0.119; N 0.04; T 0.159; M -0.014; P 0.118; L -0.089; R 0.085; Y -0.431; K 0.153
A20: G 0.065; C -0.442; R -0.038; V -0.202; W -0.295; I -0.696; Y -0.367; Q -0.095; P -0.292
G32: D -0.454; C -0.592; P -0.082; T -0.655; A -0.196; W -0.349; L -0.96; Q -0.414
N4: Y -0.226; T -0.186; C -0.183; P -0.033; D 0.22; R -0.16; M -0.011; A -0.162
C10: V -0.322; A -0.141; M -0.501; L -0.414; D -0.105; W -0.418; Y -0.439; P -0.633; K -0.323
N13: P -0.258; G -0.045; K -0.075; T -0.297; L -0.266; C -0.558; Y -0.51; W -0.755; D -0.092; H -0.871; I -0.398; E -0.061; F -0.613; S -0.181
S26: M -0.384; P -0.624; Q 0.091; V -0.159; W -1.91; F -0.651; C -0.98; R -0.241; D -0.101; A 0.05; K 0.032; T -0.095; L -0.559
C33: E 0.109; R -0.245; H -0.106; W -0.449; G -0.025; Q -0.362; M -0.147; S -0.121; P -0.014
C30: Q -0.196; V -0.352; E -0.226; A -0.252; R -0.425; P -0.209; I -0.945; H -0.498; S -0.355; L -1; G -0.29
Y14: N 0.267; G 0.096; T -0.222; C 0.14; Q 0.007; K -0.02; E 0.013; S 0.047; M 0.153
Q21: W -0.508; D -0.566; G -0.004; V -0.472; K -0.065; H -0.271; P -0.073; R 0.061; T -0.08; M -0.48
L11: K -0.025; D -0.428; A 0.075; P -0.116; I -0.369; H 0.297; Y -0.656; E 0.05; W -0.388; C -0.567; Q 0.087; S -0.134
